Measured values published in the supplement of paper PMC10724198.
± gives the standard deviation of the averaged measurements.

System: Saccharomyces cerevisiae
Assay: protein stability index of tFT-peptide fusion (C-terminal peptide) (PSI (0-1 scale)); higher = more stable (slower turnover)
Details: genetic background: wild type; temperature: 30 C
Method: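 Multiplexed protein stability (MPS) profiling in S. cerevisiae. Random 12-aa peptides (tFT-X12 library) are fused to the C-terminus of a sfGFP-mCherry tandem fluorescent timer, after mCherry and a GGGS linker. Cells are FACS-sorted into 8 mCherry/sfGFP bins and deep-sequenced. The protein stability index (PSI) is the read-weighted bin average, scaled from 0 (unstable) to 1 (stable). Only peptides with >10 reads are reported; cells were grown at 30 °C in SC-His with glucose.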
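Note: PSI is a weighted mean of sequencing reads over stability bins, variants kept only with over 10 reads, mCherry proximal and sfGFP distal, peptide attached via GGGS linker.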

Sequence | protein stability index
CAVVSRYQPLSL | 0.7092 ± 0.006
CAWRSVRLLIAH | 0.506 ± 0.068
CCFHRLRYSRAV | 0.647 ± 0.02
CCGGRTWFVCGV | 0.699 ± 0.041
CCRANWDFPIPS | 0.707 ± 0.027
CCRTMLGSLVRS | 0.659 ± 0.012
CCVSLQSNLLFS | 0.68 ± 0.026
CDLISPAHLVLG | 0.678 ± 0.01
CDRPERRRTHVY | 0.655 ± 0.041
CDSRLSGVFKFG | 0.6816 ± 0.0026
CDVIGLVRVKRG | 0.771 ± 0.047
CDWRSMEWRGCW | 0.693 ± 0.0072
CFCGGFGVFVIF | 0.593 ± 0.014
CFFFFIFSLFGL | 0.515 ± 0.02
CFGRSPWLTINV | 0.6171 ± 0.0046
CFIPLCPLSFCI | 0.609 ± 0.016
CFLERLAFPGLY | 0.633 ± 0.011
CFLSFLLFSSSP | 0.558 ± 0.025
CFPPSLVPRPTY | 0.673 ± 0.054
CFSRKGIRIKRP | 0.734 ± 0.0098
CFVERRCFLLYR | 0.562 ± 0.029
CFVSSSRFLSSF | 0.692 ± 0.065
CGCVWVSYFFDK | 0.655 ± 0.069
CGFLFPCSPSSK | 0.689 ± 0.068
CGGCPGCDIHMG | 0.655 ± 0.082

Sequence | protein stability index
CGGFGGLYVVVF | 0.545 ± 0.014
CGGGGGLWLLEV | 0.559 ± 0.015
CGGSLGAPVLVG | 0.588 ± 0.042
CGGSWMRGLRDL | 0.72 ± 0.043
CGILTWASSSLG | 0.688 ± 0.034
CGLCLGGEWLVG | 0.701 ± 0.026
CGLRGAGCLARD | 0.637 ± 0.019
CGPGGFGGERVG | 0.73 ± 0.058
CGRFGRGVDLGN | 0.687 ± 0.02
CGRFVGEGGGKV | 0.777 ± 0.1
CGRLSNAAEPTC | 0.792 ± 0.19
CGRPRGGEPGGA | 0.715 ± 0.078
CGVWHGFFGLWL | 0.657 ± 0.12
CGVYGRVVEWGG | 0.706 ± 0.042
CGWGVWGAKSGR | 0.6289 ± 0.0049
CIFSMLLPPFSL | 0.687 ± 0.0091
CIFWGSGWDTLV | 0.728 ± 0.063
CIIIIGRHSIWG | 0.672 ± 0.057
CKCKFLGLSATM | 0.613 ± 0.013
CKRKGREEEEKE | 0.7361 ± 0.0064
CLCITGIPVQGF | 0.653 ± 0.064
CLCLCFLDYKAC | 0.5731 ± 0.0051
CLCRAAGARRCG | 0.694 ± 0.03
CLESKTGYEVMG | 0.7065 ± 0.0052
CLFIAGGSDLSH | 0.7 ± 0.039

Sequence | protein stability index
CLFSVENNNILG | 0.704 ± 0.0015
CLGLRFDFYGFV | 0.702 ± 0.065
CLGLVSNCGLYV | 0.674 ± 0.041
CLHTSVYFHLQR | 0.669 ± 0.04
CLLLVLCKFGLL | 0.556 ± 0.023
CLRRTSLEDRRR | 0.704 ± 0.037
CLTSSIFSRSFA | 0.632 ± 0.04
CLVSVDYFPPKL | 0.75 ± 0.16
CLWRGDEGRVPW | 0.7139 ± 0.0026
CMVRGCFNHCGW | 0.669 ± 0.024
CNSRVSAVGLII | 0.6303 ± 0.0018
CPALSPSPTLAS | 0.68 ± 0.15
CPGLCVFFSPDY | 0.661 ± 0.044
CPGTSRADFSAV | 0.681 ± 0.044
CPLPLPPLHESF | 0.674 ± 0.031
CPPPPPPPASPH | 0.698 ± 0.074
CPPPTPPAPPLP | 0.74 ± 0.033
CPPRPCTASIVR | 0.632 ± 0.036
CPRRVAVAGETS | 0.697 ± 0.044
CPVFYRYCHPPH | 0.707 ± 0.047
CRCVRVGSVVLD | 0.632 ± 0.016
CREWNKAGWGNV | 0.702 ± 0.014
CRGRGFVVGGRR | 0.687 ± 0.035
CRISHPPLGGGS | 0.652 ± 0.02
CRRCQRNRVLDG | 0.673 ± 0.068

Sequence | protein stability index
CRRHPLTVVPIL | 0.619 ± 0.028
CRVSIVPIKRYS | 0.578 ± 0.099
CRVVRGGEGLGG | 0.652 ± 0.0081
CRWLGELGVWVF | 0.637 ± 0.062
CSCSTFWFFFGR | 0.724 ± 0.026
CSGEGDQWLGVR | 0.7139 ± 0.0028
CSGFPPPPHSSL | 0.6812 ± 0.00089
CSGLTLLRFFVW | 0.654 ± 0.064
CSGPARERPVRF | 0.709 ± 0.062
CSLLFSLNLMPS | 0.666 ± 0.063
CSLPPSPAVPPP | 0.644 ± 0.022
CSLQCLGWPISS | 0.739 ± 0.087
CSNGVPLTVLLM | 0.525 ± 0.0057
CSRFPYSHSLSQ | 0.716 ± 0.016
CSRLDVSEVVGD | 0.663 ± 0.074
CSSVGGYGGFEV | 0.616 ± 0.013
CSVCMSSSRLFS | 0.733 ± 0.014
CTGDLSHVLFGI | 0.725 ± 0.016
CTTSCARWVTTW | 0.647 ± 0.02
CTVPGLTPKCIY | 0.581 ± 0.042
CTYAPSGRNSHF | 0.7656 ± 0.0035
CVDAFLVRLVFM | 0.568 ± 0.013
CVGLGGPPGGCG | 0.603 ± 0.091
CVIVCETYFQCA | 0.53 ± 0.0088
CVLRTSQPSCPG | 0.627 ± 0.023

Sequence | protein stability index
CVLSFVRGCLGA | 0.587 ± 0.067
CVRPSFMSRSLR | 0.719 ± 0.064
CVRRKYIGGGEG | 0.673 ± 0.025
CVSTYLTCSITS | 0.54 ± 0.022
CWGVGGRTVING | 0.671 ± 0.049
CYAVEACWASCA | 0.597 ± 0.0087
CYMFFNPSFNRR | 0.712 ± 0.017
CYPFSGLWPPPP | 0.717 ± 0.018
CYVGALQKCGTR | 0.674 ± 0.01
DAELYLPSPTRL | 0.666 ± 0.064
DAGRLLIVSVDS | 0.662 ± 0.036
DAPEKQDKHINE | 0.719 ± 0.088
DCFSASIHYCPS | 0.714 ± 0.059
DCLRQTVPEGAM | 0.723 ± 0.069
DCYFNVHFKSIG | 0.654 ± 0.074
DDATLAVCRGWV | 0.731 ± 0.028
DDFPNKHVEPKA | 0.658 ± 0.014
DDGGSVTERDKS | 0.649 ± 0.007
DDPGPSTHPRSA | 0.63 ± 0.0069
DDWCLVGGLCDC | 0.684 ± 0.033
DDWNLQEAQSLY | 0.703 ± 0.053
DERREADLYPGE | 0.648 ± 0.059
DERSWLPLFFST | 0.695 ± 0.035
DESWCVPCPSSL | 0.648 ± 0.0065
DETRQTYRNRKG | 0.728 ± 0.12

Sequence | protein stability index
DEVLVSGGKWWE | 0.73 ± 0.1
DFCPVYRVIIWN | 0.646 ± 0.029
DFSNDCLRVLGD | 0.673 ± 0.021
DFSSLIISFPFI | 0.627 ± 0.059
DFVGVVGFLVAG | 0.65 ± 0.032
DGARECRDDVCS | 0.675 ± 0.017
DGAVRLGVGGLG | 0.682 ± 0.041
DGCLTKPGQCHG | 0.646 ± 0.013
DGGGGGGAPRVR | 0.715 ± 0.11
DGGRGQGMLGGS | 0.662 ± 0.063
DGGSGQGMFGGS | 0.611 ± 0.039
DGKNSGHGLAKT | 0.702 ± 0.087
DGSFWKGQGAGV | 0.671 ± 0.011
DGTTAIAGPHPT | 0.629 ± 0.052
DGVQTVPFSCRL | 0.773 ± 0.28
DHIALIWGCSNF | 0.703 ± 0.06
DIAFFEGSGGTM | 0.675 ± 0.096
DIRRSSMFKPKS | 0.702 ± 0.074
DIYNRNKRRDIT | 0.644 ± 0.0067
DKGTDKDDVKIM | 0.686 ± 0.011
DLCLRSTLPLFL | 0.585 ± 0.016
DLCSPWGVDGVK | 0.696 ± 0.00079
DLILECRYEVGV | 0.667 ± 0.053
DLLAVPALTLHL | 0.677 ± 0.14
DLLYGLAMSLSN | 0.704 ± 0.012

Sequence | protein stability index
DLQKKKEILSQK | 0.707 ± 0.029
DLSFVLAPFVSP | 0.6683 ± 0.0038
DLSVSDGCVAFG | 0.64 ± 0.048
DLTRALQAGHDR | 0.695 ± 0.039
DLVNTVCTVLDN | 0.6836 ± 0.0039
DLWTRGAVHRKA | 0.6756 ± 0.0061
DMDLAVTRHIRS | 0.718 ± 0.1
DPAHPRPFDCPL | 0.709 ± 0.013
DPLIILLSSVKL | 0.718 ± 0.0099
DPPPLPPAHSAS | 0.658 ± 0.034
DPVGFSEMYLRV | 0.705 ± 0.0078
DQLETTSAPLPG | 0.711 ± 0.044
DQRRKKKPIKGN | 0.736 ± 0.12
DQRRWLWGGILK | 0.707 ± 0.018
DRFLPPALVMYI | 0.566 ± 0.038
DRGWPHTYNTIL | 0.639 ± 0.1
DRHLNRPRVKKR | 0.758 ± 0.076
DRPDLVLAGVCG | 0.756 ± 0.06
DRRETASGVSVR | 0.682 ± 0.025
DRRRVIIKENKA | 0.675 ± 0.024
DRTNIIGVIDDL | 0.753 ± 0.05
DRVGGCESRAGR | 0.651 ± 0.04
DSFGSERYEPCK | 0.622 ± 0.0097
DSFLFVPREVAD | 0.687 ± 0.013
DSRFMLYIHSSR | 0.7132 ± 0.0038

Sequence | protein stability index
DSSGATGLLYML | 0.746 ± 0.022
DSSYVYHFRCVS | 0.62055 ± 0.00019
DTDDARGVWGSV | 0.7151 ± 0.0058
DTFLGSLFIFIR | 0.522 ± 0.011
DTSENSVKFTKV | 0.733 ± 0.075
DTVTGNWGVGLG | 0.657 ± 0.02
DTWRADKRGMKV | 0.662 ± 0.052
DVAEAGPRPPPT | 0.755 ± 0.091
DVFCFWCVSGFV | 0.651 ± 0.082
DVGISICLLHGA | 0.6664 ± 0.002
DVGIVPGVFWWV | 0.738 ± 0.054
DVISRSTRIMGE | 0.617 ± 0.018
DVLESPVLYPTN | 0.70948 ± 7.6e-05
DVSSRDLCWLVC | 0.6422 ± 0.0052
DVVFRLAFTDFC | 0.693 ± 0.021
DVVGRGRGPVRL | 0.802 ± 0.033
DVYFHTRSCGTP | 0.688 ± 0.016
DVYLVGLGVWSS | 0.668 ± 0.035
DWVLGRRDTRKP | 0.752 ± 0.025
DWYSGVTYGPCS | 0.78 ± 0.062
DYRTLGPAPDKS | 0.74 ± 0.035
